US20160075790A1 (Bristol-Myers Squibb, published 2016)
Positions count from the first letter of the chain named. “And” between values parts separate entries of the source, which are not always exact repeats. Equal values may be shown once. Read-outs that look alike come from different tables or passages of the source.

How the values were obtained:
[1] = biological target: human isoleucine zipper-CD40L (IZ-hCD40L) (human) (UniProt P29965); assay: cell-based or functional assay
[2] = biological target: T1, human CD40L, membrane-bound on cells (human, UniProt P29965 1-261); assay: cell-based or functional assay
T1 sequence: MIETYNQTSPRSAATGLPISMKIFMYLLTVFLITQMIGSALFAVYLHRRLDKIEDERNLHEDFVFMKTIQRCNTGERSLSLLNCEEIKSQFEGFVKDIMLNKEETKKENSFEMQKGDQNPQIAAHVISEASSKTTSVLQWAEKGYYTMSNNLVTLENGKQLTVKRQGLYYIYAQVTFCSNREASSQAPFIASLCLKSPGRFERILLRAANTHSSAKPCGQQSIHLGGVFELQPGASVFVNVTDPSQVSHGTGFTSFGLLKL

[3] = biological target: T2, human isoleucine zipper-CD40L (IZ-hCD40L) (human, UniProt P29965 113-261); assay: cell-based or functional assay
T2 sequence: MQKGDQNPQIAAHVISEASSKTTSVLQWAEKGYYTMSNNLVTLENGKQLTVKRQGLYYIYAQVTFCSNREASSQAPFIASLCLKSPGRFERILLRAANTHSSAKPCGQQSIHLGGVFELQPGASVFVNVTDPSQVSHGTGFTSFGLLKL

[4] = biological target: T1, human CD40L, membrane-bound on cells; assay: cell-based or functional assay; remark: listed apart in the source
[5] = biological target: T3, human CD40L monomer triple mutant (T211E, S222Y, H224K, [108-261]) (human, UniProt P29965 108-261); assay: SPR; dAb-CT-long captured on anti-human IgG Fc surface, CD40L monomer as analyte
T3 construct: also called monomeric human CD40L
T3 chain: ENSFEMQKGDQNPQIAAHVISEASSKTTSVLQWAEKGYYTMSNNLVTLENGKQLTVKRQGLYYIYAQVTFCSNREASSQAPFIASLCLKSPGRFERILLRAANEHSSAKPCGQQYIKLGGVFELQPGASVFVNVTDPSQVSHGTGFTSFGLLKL

[6] = biological target: T2, human isoleucine zipper-CD40L …; assay: cell-based or functional assay; remark: listed apart in the source
[7] = biological target: T1, human CD40L, membrane-bound on cells; assay: cell-based or functional assay; remark: listed apart in the source

B1: 2h503-1 Fc (Fc fusion, not shown: a dimerising Fc or GST)
chain: DIQMTQSPSSLSASVGDRVTITCRASHHIQRYLSWYQQKPGKAPKLLILWGSQLQSGVPSRFSGSGSGTDFTLTISSLQPEDFATYYCGQWWAPPQTFGQGTKVEIKR
hIZCD40L-driven Human B Cell Proliferation EC50 [1]: 4 nM | CHO-hCD40L-driven DC Activation IL-12 EC50 [2]: 2.8 nM | CHO-hCD40L-driven Human B Cell Proliferation EC50 [2]: 60 nM | T-B cell MLR EC50 [2]: 45 nM

B2: 2h719-2 Fc (Fc fusion, not shown: a dimerising Fc or GST)
chain: EVQLLESGGGLVQPGGSLRLSCAASGFTFKRYEMMWVRQAPGKGLEWVSSISSDGSFTYYADSVKGRFTISRDNSKNTLYLQMNSLRAEDTAVYYCAEPFTEFDYWGHGTLVTVSS
hIZCD40L-driven Human B Cell Proliferation EC50 [1]: 1 nM | CHO-hCD40L-driven DC Activation IL-12 EC50 [2]: 0.13 nM | CHO-hCD40L-driven Human B Cell Proliferation EC50 [2]: 0.7 nM | T-B cell MLR EC50 [2]: 6 nM

B3: 2h719-202-N297Qshort Fc (Fc fusion, not shown: a dimerising Fc or GST)
chain: B2 chain with R31K
hIZCD40L-driven Human B Cell Proliferation EC50 [1]: 1.8 nM | CHO-hCD40L-driven DC Activation IL-12 EC50 [2]: 0.66 nM | CHO-hCD40L-driven Human B Cell Proliferation EC50 [2]: 1.7 nM

B4: 2h116-1320-Fc (Fc fusion, not shown: a dimerising Fc or GST)
chain: DIQMTQSPSSLSAYVGDRVTITCRASQPIGPDLLWYQQKPGKAPKLLIYQTSILRSGVPSRFSGSGSETDFTLTISNLQPEDFAKYYCQQYWAFPVTFGQGTKVVIKR
hIZCD40L-driven Human B Cell Proliferation EC50 [1]: 13 nM | CHO-hCD40L-driven DC Activation IL-12 EC50 [2]: 14 nM | CHO-hCD40L-driven Human B Cell Proliferation EC50 [2]: > 130 nM | T-B cell MLR EC50 [2]: 244 nM

B5: 2h572-6 Fc (Fc fusion, not shown: a dimerising Fc or GST)
chain: EVQLLESGGGLVQPGGSLRLSCAASGFTFNWQLMGWVRQAPGKGLEWVSGIEGPGDVTYYADSVKGRFTISRDNSKNTLYLQMNSLRAEDTAVYYCVKVGKESNSDYRGQGTLVTVSS
hIZCD40L-driven Human B Cell Proliferation EC50 [1]: 0.6 nM | CHO-hCD40L-driven DC Activation IL-12 EC50 [2]: 0.22 nM | CHO-hCD40L-driven Human B Cell Proliferation EC50 [2]: 3 nM | T-B cell MLR EC50 [2]: 1.9 nM

B6: BMS2h-572-631 (other)
VH: B5 chain with N30K, E102D, N104R
hIZCD40L-driven Human B Cell Proliferation EC50 [3]: 108 nM | CHO-hCD40L-driven DC Activation IL-12 EC50 [4]: 230 nM

B7: 2h572-633 Fc (Fc fusion, not shown: a dimerising Fc or GST)
chain: B5 chain with Q32E, V37A, E102D, S103A, N104K
hIZCD40L-driven Human B Cell Proliferation EC50 [1]: 3.5 nM | CHO-hCD40L-driven DC Activation IL-12 EC50 [2]: 0.34 nM | CHO-hCD40L-driven Human B Cell Proliferation EC50 [2]: 3 nM | T-B cell MLR EC50 [2]: 0.15 nM | T-B cell MLR IL-6 EC50 [2]: 0.11 nM

B8: 2h572-619-N297Qlong Fc (Fc fusion, not shown: a dimerising Fc or GST)
chain: B5 chain with E102D, N104R
hIZCD40L-driven Human B Cell Proliferation EC50 [1]: 0.98 nM | CHO-hCD40L-driven DC Activation IL-12 EC50 [2]: 1.1 nM | CHO-hCD40L-driven Human B Cell Proliferation EC50 [2]: 2 nM | T-B cell MLR EC50 [2]: 0.48 nM and 0.474 nM | T-B cell MLR IL-6 EC50 [2]: 0.22 nM and 0.11 nM

B9: BMS2h-572-630 (other)
VH: B5 chain with N30K, E102D, S103A, N104K
hIZCD40L-driven Human B Cell Proliferation EC50 [3]: 103 nM | CHO-hCD40L-driven DC Activation IL-12 EC50 [4]: 246 nM

B10: 2h572-633-CT-Fc SP5 (Fc fusion, not shown: a dimerising Fc or GST)
chain: B5 chain with Q32E, V37A, E102D, S103A, N104K
hIZCD40L-driven Human B Cell Proliferation EC50 [1]: 5 nM | CHO-hCD40L-driven DC Activation IL-6 EC50 [2]: 1.5 nM | CHO-hCD40L-driven DC Activation IL-12 EC50 [2]: 2.3 nM | CHO-hCD40L-driven DC Activation TNF EC50 [2]: 2.9 nM | CHO-hCD40L-driven Human B Cell Proliferation EC50 [2]: 1 nM | T-B cell MLR EC50 [2]: 0.161 nM | T-B cell MLR IL-6 EC50 [2]: 0.13 nM

B11: 2h572-608-N297Qshort Fc (Fc fusion, not shown: a dimerising Fc or GST)
chain: B5 chain with Q32E, V37A
hIZCD40L-driven Human B Cell Proliferation EC50 [1]: 1 nM | CHO-hCD40L-driven DC Activation IL-12 EC50 [2]: 0.93 nM | CHO-hCD40L-driven Human B Cell Proliferation EC50 [2]: 2 nM

B12: 2h572-635-CT Long Fc (Fc fusion)
chain: B5 chain with Q32E, V37A, E102D, N104K
notes: not shown: linker and CT Long Fc (CT-L2)
binding result [5]: no binding | hIZCD40L-driven Human B Cell Proliferation EC50 [6]: 3 nM | CHO-hCD40L-driven DC Activation IL-12 EC50 [7]: 1.6 nM | CHO-hCD40L-driven Human B Cell Proliferation EC50 [7]: 2 nM | T-B cell MLR EC50 [7]: 0.149 nM | T-B cell MLR IL-6 EC50 [7]: 0.13 nM

B13: 2h572-619-N297Qshort Fc (Fc fusion, not shown: a dimerising Fc or GST)
chain: B5 chain with E102D, N104R
hIZCD40L-driven Human B Cell Proliferation EC50 [1]: 0.9 nM | CHO-hCD40L-driven DC Activation IL-12 EC50 [2]: 1.2 nM | CHO-hCD40L-driven Human B Cell Proliferation EC50 [2]: 1 nM | T-B cell MLR EC50 [2]: 0.226 nM and 0.216 nM | T-B cell MLR IL-6 EC50 [2]: 0.1 nM

B14: 2h572-635 Fc (Fc fusion, not shown: a dimerising Fc or GST)
chain: B5 chain with Q32E, V37A, E102D, N104K
hIZCD40L-driven Human B Cell Proliferation EC50 [1]: 2 nM | CHO-hCD40L-driven DC Activation IL-12 EC50 [2]: 0.445 nM | CHO-hCD40L-driven Human B Cell Proliferation EC50 [2]: 2.5 nM | T-B cell MLR EC50 [2]: 0.16 nM | T-B cell MLR IL-6 EC50 [2]: 0.11 nM

B15: 2h572-619-Ctshort Fc (Fc fusion, not shown: a dimerising Fc or GST)
chain: B5 chain with E102D, N104R
hIZCD40L-driven Human B Cell Proliferation EC50 [1]: 1.5 nM | CHO-hCD40L-driven DC Activation IL-12 EC50 [2]: 1.8 nM | CHO-hCD40L-driven Human B Cell Proliferation EC50 [2]: 2 nM | T-B cell MLR EC50 [2]: 0.4 nM | T-B cell MLR IL-6 EC50 [2]: 0.3 nM

B16: 2h572-634 Fc (Fc fusion, not shown: a dimerising Fc or GST)
chain: B5 chain with Q32E, V37A, E102D, N104R
hIZCD40L-driven Human B Cell Proliferation EC50 [1]: 3 nM | CHO-hCD40L-driven DC Activation IL-12 EC50 [2]: 0.42 nM | CHO-hCD40L-driven Human B Cell Proliferation EC50 [2]: 3.5 nM | T-B cell MLR EC50 [2]: 0.23 nM | T-B cell MLR IL-6 EC50 [2]: 0.19 nM

B17: 2h572-6-CT Long Fc (Fc fusion)
chain: B5 chain
notes: as for B12
binding result [5]: no binding | hIZCD40L-driven Human B Cell Proliferation EC50 [6]: 1 nM | CHO-hCD40L-driven DC Activation IL-12 EC50 [7]: 3 nM | CHO-hCD40L-driven Human B Cell Proliferation EC50 [7]: 6 nM | T-B cell MLR EC50 [7]: 13.6 nM | T-B cell MLR IL-6 EC50 [7]: 8.1 nM

B18: 2h572-619-Ctlong Fc (Fc fusion)
chain: B5 chain with E102D, N104R
notes: as for B12
binding result [5]: no binding | hIZCD40L-driven Human B Cell Proliferation EC50 [6]: 1.6 nM | CHO-hCD40L-driven DC Activation IL-6 EC50 [7]: 1.5 nM | CHO-hCD40L-driven DC Activation IL-12 EC50 [7]: 1.4 nM | CHO-hCD40L-driven DC Activation IL-23 EC50 [7]: 1.5 nM | CHO-hCD40L-driven DC Activation TNF EC50 [7]: 2 nM | CHO-hCD40L-driven Human B Cell Proliferation EC50 [7]: 2 nM | T-B cell MLR EC50 [7]: 0.72 nM | T-B cell MLR IL-6 EC50 [7]: 0.43 nM

B19: 2h572-608-CT Long Fc (Fc fusion)
chain: B5 chain with Q32E, V37A
notes: as for B12
binding result [5]: no binding | hIZCD40L-driven Human B Cell Proliferation EC50 [6]: 2 nM | CHO-hCD40L-driven DC Activation IL-12 EC50 [7]: 1.6 nM | CHO-hCD40L-driven Human B Cell Proliferation EC50 [7]: 2 nM | T-B cell MLR EC50 [7]: 0.468 nM | T-B cell MLR IL-6 EC50 [7]: 0.38 nM

B20: 2h572-614-CT Long Fc (Fc fusion)
chain: B5 chain with E102D, S103A, N104K
notes: as for B12
binding result [5]: no binding | hIZCD40L-driven Human B Cell Proliferation EC50 [6]: 2 nM | CHO-hCD40L-driven DC Activation IL-12 EC50 [7]: 1.4 nM | CHO-hCD40L-driven Human B Cell Proliferation EC50 [7]: 2 nM | T-B cell MLR EC50 [7]: 0.283 nM | T-B cell MLR IL-6 EC50 [7]: 0.25 nM
